Data taken from IntAct's records for PubMed 25960410.

B1: Mortality factor 4-like protein 1 (Homo sapiens), Q9UBU8-2 (parent)
chain: MAPKQDPKPKFQEGERVLCFHGPLLYEAKCVKVAIKDKQVKYFIHYSGWNKNWDEWVPESRVLKYVDTNLQKQRELQKANQEQYAEGKMRGAAPGKKTSGLQQKNVEVKTKKNKQKTPGNGDGGSTSETPQPPRKKRARVDPTVENEETFMNRVEVKVKIPEELKPWLVDDWDLITRQKQLFYLPAKKNVDSILEDYANYKKSRGNTDNKEYAVNEVVAGIKEYFNVMLGTQLLYKFERPQYAEILADHPDAPMSQVYGAPHLLRLFVRIGAMLAYTPLDEKSLALLLNYLHDFLKYLAKNSATLFSASDYEVAPPEYHRKAV

Variants of: B1
Details: with mrgbp_human MRGBP

Variant	effect of a mutation on the interaction
L287A	decreasing interaction strength
W172A	decreasing interaction strength
L168A	decreasing interaction strength
